Experimental data reported in paper PMC12931240 (2025).

Biological target: NP‐WT S nanoparticles (nanoparticles coated with WT spike proteins) (SARS-CoV-2)
Assay: SPR

B1: P5‐1C8 IgG (full‐length) (antibody, V domains shown)
VH: EVQLVESGGGLIQPGGSLRLSCAASEIIVSRNYMNWVRQAPGKGLEWVSVIYSGGSTFYADSVKGRFTISRDNSENTLYLQMNSLRAEDTAVYYCARGYGDYYFDYWGRGTLVTVSS
VL: not shown
B1 was tested, and the koff was 2.19e-05 s⁻¹.
